Source: the RNAGym collection of RNA variant scans (doi:10.1073/pnas.2313332121)

B1: TPR t1 (parent)
chain: GACCAAUCUGCCCUCAGAGCUCGAGAACAUCUUCGGAUGCAGAGGAGGCAGGCUUCGGUGGCGCGAUAGCGCCAACGUCCUCAACCUCCAAUGCAUCCCACCACAUGAUGAUGCCUGAAGAGCCUUGGUUUUUUG

Variants of: B1
Test: polymerase ribozyme fitness, log enrichment relative to wild type (log ratio); higher = more active; in vitro selection for triplet polymerase activity
Outline: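 Both subunits of a heterodimeric triplet polymerase ribozyme were given their own mutant library, built by PCR and transcribed. Each library was annealed with a biotinylated primer, the partner subunit and triplets, incubated frozen at −7 °C, and its extended constructs gel-excised, captured on streptavidin beads and amplified by RT-PCR, all in one round done in triplicate. Fitness is the logarithm of genotype enrichment relative to wild-type enrichment, with replicates averaged by inverse-variance weighting. That logarithm is base 2, and Illumina-sequenced genotypes needed ≥10 input reads and ≥1 read per output.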
With A27G C40U the “polymerase ribozyme fitness (log ratio)” value was -2.39.
In the case of A27U A83U, the “polymerase ribozyme fitness (log ratio)” value is reported as -3.7.
With A27G G45A A83G U130G the “polymerase ribozyme fitness (log ratio)” value was -4.37.
For C28A U32C, the “polymerase ribozyme fitness (log ratio)” value was -3.9.
With A27C G47U U106A C124A U130A U133A the “polymerase ribozyme fitness (log ratio)” value was -3.86.
With C28G C40U C53U C56G A91C C115U U129A the “polymerase ribozyme fitness (log ratio)” value was -5.15.
With A27G G45U G71U U96G G120U the “polymerase ribozyme fitness (log ratio)” value was -4.73.
For A27U U54C G61U G107C U109C G110C, the “polymerase ribozyme fitness (log ratio)” value was -7.69.
With A27U C72A C82A U112C G122C the “polymerase ribozyme fitness (log ratio)” value was -2.28.
In the case of C28A G44A G48A C73U U106A, the “polymerase ribozyme fitness (log ratio)” value is reported as -5.87.
For A27G A74G C115A, the “polymerase ribozyme fitness (log ratio)” value was -4.15.
For A27C G51U C76U C115G C124G U131A G135U, the “polymerase ribozyme fitness (log ratio)” value was -7.29.
For A26U G60C C86G, the “polymerase ribozyme fitness (log ratio)” value was -4.99.
For A27G A74C C115G, the “polymerase ribozyme fitness (log ratio)” value was -6.8.
For C28A U55G G71A, the “polymerase ribozyme fitness (log ratio)” value was -5.6.
With C28G A50C U87A the “polymerase ribozyme fitness (log ratio)” value was -3.39.
For A27C C73U, the “polymerase ribozyme fitness (log ratio)” value was -3.12.
With A27U A29G C72A the “polymerase ribozyme fitness (log ratio)” value was -2.36.
In the case of A27C U55G, the “polymerase ribozyme fitness (log ratio)” value is reported as -2.72.
With A27C A118U the “polymerase ribozyme fitness (log ratio)” value was -2.67.
For C28A C85U A121U, the “polymerase ribozyme fitness (log ratio)” value was -3.69.
For A27U C40G G57U U112A, the “polymerase ribozyme fitness (log ratio)” value was -3.
In the case of A26U U38A, the “polymerase ribozyme fitness (log ratio)” value is reported as -4.53.
For A27U C72A U96A, the “polymerase ribozyme fitness (log ratio)” value was -4.21.
In the case of A27C G57C, the “polymerase ribozyme fitness (log ratio)” value is reported as -3.36.
For A27G U38A C73U A83C, the “polymerase ribozyme fitness (log ratio)” value was -3.53.
With A27U A95C the “polymerase ribozyme fitness (log ratio)” value was -4.26.
With A27G A105U the “polymerase ribozyme fitness (log ratio)” value was -4.91.
For A26U G113A, the “polymerase ribozyme fitness (log ratio)” value was -3.51.
In the case of A27G C62A, the “polymerase ribozyme fitness (log ratio)” value is reported as -2.85.
With A27G G69U A74U the “polymerase ribozyme fitness (log ratio)” value was -2.9.
For A26U G48C, the “polymerase ribozyme fitness (log ratio)” value was -3.53.
In the case of A26U G61A U116G A121G, the “polymerase ribozyme fitness (log ratio)” value is reported as -2.88.
With A26U C73A the “polymerase ribozyme fitness (log ratio)” value was -2.82.
With C28A G60C the “polymerase ribozyme fitness (log ratio)” value was -4.02.
In the case of A27C A50G G63U G110C U125G, the “polymerase ribozyme fitness (log ratio)” value is reported as -6.71.
For A26U G60A, the “polymerase ribozyme fitness (log ratio)” value was -3.74.
In the case of A26U G60U, the “polymerase ribozyme fitness (log ratio)” value is reported as -3.37.
In the case of C28A C73U, the “polymerase ribozyme fitness (log ratio)” value is reported as -3.04.
For A27U U131C, the “polymerase ribozyme fitness (log ratio)” value was -2.91.
For A27U G36A A41C C56A G61A G120A, the “polymerase ribozyme fitness (log ratio)” value was -5.6.
With C28G A37U G42U C56A U106A G113A C114G the “polymerase ribozyme fitness (log ratio)” value was -5.89.
With A26U G61U the “polymerase ribozyme fitness (log ratio)” value was -3.08.
In the case of A26U C124A, the “polymerase ribozyme fitness (log ratio)” value is reported as -0.634.
With A27U C49U C79G C86U the “polymerase ribozyme fitness (log ratio)” value was -4.94.
For A27G G61A, the “polymerase ribozyme fitness (log ratio)” value was -1.92.
For A26U C102A, the “polymerase ribozyme fitness (log ratio)” value was -5.29.
For A27G G51U G61A G127C, the “polymerase ribozyme fitness (log ratio)” value was -6.98.
In the case of A27G C34A, the “polymerase ribozyme fitness (log ratio)” value is reported as -4.06.
With A27G G51U G58A U78C A84C the “polymerase ribozyme fitness (log ratio)” value was -5.35.
In the case of C28A C99U U106A, the “polymerase ribozyme fitness (log ratio)” value is reported as -5.34.
In the case of A27G G110A, the “polymerase ribozyme fitness (log ratio)” value is reported as -1.89.
In the case of A27G G110U, the “polymerase ribozyme fitness (log ratio)” value is reported as -3.11.
With C28A G45A C53U G61A G110C the “polymerase ribozyme fitness (log ratio)” value was -1.65.
With A26U C70U C114U the “polymerase ribozyme fitness (log ratio)” value was -7.55.
For A27U A29G G122A, the “polymerase ribozyme fitness (log ratio)” value was -3.63.
In the case of A27U C80U, the “polymerase ribozyme fitness (log ratio)” value is reported as -3.34.
In the case of A27U C80A, the “polymerase ribozyme fitness (log ratio)” value is reported as -5.56.
With C28G A37C the “polymerase ribozyme fitness (log ratio)” value was -3.7.
In the case of C28G A37U, the “polymerase ribozyme fitness (log ratio)” value is reported as -2.45.
In the case of A26U C88A, the “polymerase ribozyme fitness (log ratio)” value is reported as -3.45.
For A27G C98U, the “polymerase ribozyme fitness (log ratio)” value was -3.4.
In the case of A26U G128C, the “polymerase ribozyme fitness (log ratio)” value is reported as -4.92.
In the case of A27U C49G G51A C80A C99U G120C U130A, the “polymerase ribozyme fitness (log ratio)” value is reported as -8.17.
In the case of A26U G45A G77U, the “polymerase ribozyme fitness (log ratio)” value is reported as -3.48.
For A26U G58U, the “polymerase ribozyme fitness (log ratio)” value was -4.66.
For A27U C62U U125A, the “polymerase ribozyme fitness (log ratio)” value was -3.89.
In the case of A27U U96A, the “polymerase ribozyme fitness (log ratio)” value is reported as -4.07.
For A27G C102U, the “polymerase ribozyme fitness (log ratio)” value was -3.53.
For A27U U54A C115A, the “polymerase ribozyme fitness (log ratio)” value was -3.07.
With A27C G47U the “polymerase ribozyme fitness (log ratio)” value was -4.29.
For A27U U54G C123U, the “polymerase ribozyme fitness (log ratio)” value was -1.23.
For A27U C82U, the “polymerase ribozyme fitness (log ratio)” value was -2.99.
In the case of C28G A50C G61A C88A, the “polymerase ribozyme fitness (log ratio)” value is reported as -3.77.
In the case of C28A A68G A74U G93A C114G, the “polymerase ribozyme fitness (log ratio)” value is reported as -7.51.
With A27G C34G A43C G45U C115A the “polymerase ribozyme fitness (log ratio)” value was -7.59.
In the case of A27U G47U C124G, the “polymerase ribozyme fitness (log ratio)” value is reported as -1.62.
With A26U G61U C79U G93C G120C the “polymerase ribozyme fitness (log ratio)” value was -3.87.
For C28A G117A, the “polymerase ribozyme fitness (log ratio)” value was -4.5.
With A27U G52C C88U the “polymerase ribozyme fitness (log ratio)” value was -3.31.
In the case of A27C U81C C124A, the “polymerase ribozyme fitness (log ratio)” value is reported as -2.25.
In the case of A27U C104A, the “polymerase ribozyme fitness (log ratio)” value is reported as -4.18.
With A27U C40G G45U A119U the “polymerase ribozyme fitness (log ratio)” value was -5.54.
